Measurements from US20200055939A1 (Genentech, published 2020).

T1: T250A
T1 construct: % monomer 91.61; also called MICA*008.mIgG2a T250A
T1 chain: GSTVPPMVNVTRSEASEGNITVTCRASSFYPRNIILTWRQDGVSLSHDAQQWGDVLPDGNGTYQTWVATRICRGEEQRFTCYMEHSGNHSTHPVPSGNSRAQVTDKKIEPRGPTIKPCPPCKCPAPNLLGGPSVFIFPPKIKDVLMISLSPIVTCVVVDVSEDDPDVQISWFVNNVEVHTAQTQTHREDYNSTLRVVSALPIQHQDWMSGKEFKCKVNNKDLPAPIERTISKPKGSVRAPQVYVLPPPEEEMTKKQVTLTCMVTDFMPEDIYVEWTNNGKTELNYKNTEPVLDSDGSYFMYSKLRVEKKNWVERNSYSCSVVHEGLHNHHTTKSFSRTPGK

T2: S287A
T2 construct: % monomer 90.34; also called MICA*008.mIgG2a S287A
T2 chain: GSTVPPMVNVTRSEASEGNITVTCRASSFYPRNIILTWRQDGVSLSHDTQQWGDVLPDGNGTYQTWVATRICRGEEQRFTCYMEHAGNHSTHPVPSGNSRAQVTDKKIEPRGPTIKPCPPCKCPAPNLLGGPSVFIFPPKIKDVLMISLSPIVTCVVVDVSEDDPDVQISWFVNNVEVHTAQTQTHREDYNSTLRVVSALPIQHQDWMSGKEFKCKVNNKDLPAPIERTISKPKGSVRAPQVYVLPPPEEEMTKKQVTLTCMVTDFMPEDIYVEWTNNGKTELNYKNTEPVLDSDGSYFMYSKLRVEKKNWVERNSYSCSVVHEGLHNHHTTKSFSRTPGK

T3: G288A
T3 construct: % monomer 95.3; also called MICA*008.mIgG2a G288A
T3 chain: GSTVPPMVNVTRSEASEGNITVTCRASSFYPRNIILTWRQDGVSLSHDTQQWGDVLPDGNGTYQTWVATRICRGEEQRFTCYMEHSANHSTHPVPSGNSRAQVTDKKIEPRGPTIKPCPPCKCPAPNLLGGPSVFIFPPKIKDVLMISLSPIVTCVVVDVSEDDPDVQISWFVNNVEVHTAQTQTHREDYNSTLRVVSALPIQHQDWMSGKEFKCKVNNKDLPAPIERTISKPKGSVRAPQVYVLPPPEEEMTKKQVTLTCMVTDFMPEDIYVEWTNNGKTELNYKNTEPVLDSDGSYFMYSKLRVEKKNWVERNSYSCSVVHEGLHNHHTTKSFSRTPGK

T4: S291A
T4 construct: % monomer 83.21; also called MICA*008.mIgG2a S291A
T4 chain: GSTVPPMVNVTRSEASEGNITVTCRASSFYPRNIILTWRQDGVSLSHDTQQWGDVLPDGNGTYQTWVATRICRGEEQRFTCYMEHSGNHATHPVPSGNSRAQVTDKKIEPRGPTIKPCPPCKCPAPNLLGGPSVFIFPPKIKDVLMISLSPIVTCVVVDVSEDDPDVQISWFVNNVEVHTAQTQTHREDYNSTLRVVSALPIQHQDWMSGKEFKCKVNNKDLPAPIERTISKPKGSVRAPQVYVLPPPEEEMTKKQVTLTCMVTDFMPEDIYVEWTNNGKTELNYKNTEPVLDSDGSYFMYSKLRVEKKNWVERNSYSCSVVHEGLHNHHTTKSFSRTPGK

T5: T292A
T5 construct: % monomer 80.56; also called MICA*008.mIgG2a T292A
T5 chain: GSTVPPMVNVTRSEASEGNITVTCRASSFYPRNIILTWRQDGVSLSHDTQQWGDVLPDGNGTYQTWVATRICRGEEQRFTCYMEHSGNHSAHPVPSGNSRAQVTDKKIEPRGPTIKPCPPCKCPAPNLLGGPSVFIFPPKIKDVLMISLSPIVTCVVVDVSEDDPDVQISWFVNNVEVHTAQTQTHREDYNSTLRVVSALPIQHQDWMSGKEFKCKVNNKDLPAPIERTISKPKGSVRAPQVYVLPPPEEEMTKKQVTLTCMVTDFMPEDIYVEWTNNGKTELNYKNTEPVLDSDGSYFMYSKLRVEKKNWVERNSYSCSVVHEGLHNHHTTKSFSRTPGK

T6: P294A
T6 construct: % monomer 89.16; also called MICA*008.mIgG2a P294A
T6 chain: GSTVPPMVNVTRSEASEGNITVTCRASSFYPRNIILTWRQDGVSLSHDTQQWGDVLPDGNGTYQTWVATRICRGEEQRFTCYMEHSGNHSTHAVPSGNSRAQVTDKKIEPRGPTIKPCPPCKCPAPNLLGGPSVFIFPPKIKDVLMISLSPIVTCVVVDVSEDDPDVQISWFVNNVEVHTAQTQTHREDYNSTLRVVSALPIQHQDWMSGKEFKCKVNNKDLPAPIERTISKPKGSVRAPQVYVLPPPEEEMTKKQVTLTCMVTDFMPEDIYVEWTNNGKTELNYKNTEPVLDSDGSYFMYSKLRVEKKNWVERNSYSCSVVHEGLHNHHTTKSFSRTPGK

T7: Q241A (Fc fusion, a disulfide-linked homodimer; one chain given.)
T7 construct: % monomer 97.6; also called MICA*008.mIgG2a Q241A
T7 chain: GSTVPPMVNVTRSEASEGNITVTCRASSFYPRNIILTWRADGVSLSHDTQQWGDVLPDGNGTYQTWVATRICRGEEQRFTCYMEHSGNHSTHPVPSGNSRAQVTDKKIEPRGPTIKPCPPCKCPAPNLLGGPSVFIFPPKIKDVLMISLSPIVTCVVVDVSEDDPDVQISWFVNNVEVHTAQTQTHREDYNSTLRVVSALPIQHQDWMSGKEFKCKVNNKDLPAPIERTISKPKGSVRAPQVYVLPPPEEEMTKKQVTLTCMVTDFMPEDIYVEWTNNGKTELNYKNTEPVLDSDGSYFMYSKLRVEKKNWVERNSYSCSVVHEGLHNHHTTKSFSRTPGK


Columns and labels:
Assay in all cases: SPR, Fab over captured MICA*008.mIgG2a Ala variant; KD relative to wild type
T250A = target: T1, T250A
S287A = target: T2, S287A
G288A = target: T3, G288A
S291A = target: T4, S291A
T292A = target: T5, T292A
P294A = target: T6, P294A
Q241A = target: T7, Q241A

Binder | fold-decrease in affinity (T250A) | fold-decrease in affinity (S287A) | fold-decrease in affinity (G288A) | fold-decrease in affinity (S291A) | fold-decrease in affinity (T292A) | fold-decrease in affinity (P294A) | fold-decrease in affinity (Q241A)
1D5 Fab (Fab, V domains shown, Expressed in E. coli as chimera of murine variable and human constant domains; not shown: human IgG1 CH1 constant domain; human kappa CL constant domain) VH: EIQLQQSGPELVKPGASVKVSCKASGYAFTSQNIYWVKQSHGKSLEWIGYIEPYNVVPMYNPKFKGKATLTVDKSSSSAYIHLNSLTSEDSAIYYCARSGSSNFDYWGQGTTLTVSS VL: EIILTQSPTTMAASPGEKITITCSASSSISSHYLHWYQQKSGFSPKLLIYRTSNLASGVPARFSGSGSGTSYSLTIGTMEAEDVATYYCQQGSSLPLTFGAGTKVEIK | 8.8 | 4.9 | 1 | 1.1 |  | 1 | 
2E5.2.3 Fab (Fab, V domains shown) VH: QGQMQQSGAELVKPGASVKLSCKTSGFTFSDNYISWLKQKPGQSLEWIAWIYAGTGGTSYNQKFTAKAQLTVDTSSSTAYMQFSSLTTEDSAIYYCARHDYYGTSGAWFAYWGQGTLVTVSA VL: DVLMTQTPLSLPVSLGDQASLSCRSSQNIVHINGNTYLEWYLQKPGQSPKLLIYKVSNRFSGVPDRFSGSGSGTDFTLKISRVEAEDLGVYYCFQGSHVPWTFGGGTKVEIK | 1.2 | 1 | 0.6 | 1.1 | 1.3 | 1 | 1.1

Now from value to binder:

fold-decrease in affinity (T250A) | fold-decrease in affinity (S287A) | fold-decrease in affinity (G288A) | fold-decrease in affinity (S291A) | fold-decrease in affinity (T292A) | fold-decrease in affinity (P294A) | fold-decrease in affinity (Q241A) | Binder
0.5 | 1.1 | 1 | 2.7 | 1.7 | 0.9 | 1.1 | 6F8.7 Fab (Fab, V domains shown) VH: DVQLQGSGPGLVKPSQSLSLTCSVTGYSITNDYYWNWIRQFPGNKLEWMGFISFGGSNNYNPSLKNRISITRDTSKNQFFLKLSSVTTEDTATYYCARYDGRGAWFAYWAQGTLVTVSA VL: DIQMTQSPASLSASVGETVTITCRASGNIHNYLAWYQQKQGKSPQLLVYDAITLADGVPSRFSGSGSGTQYSLKINSLQPEDFGNYYCQHFWSFPLTFGAGTKVEIK
0.6 | 1.3 | 0.8 | 2.7 | 2.1 | 1 | 0.4 | 7D4.6 Fab (Fab, V domains shown) VH: DVQLQESGPGLVKPSQSLSLTCTVTGYSITSDYAWNWIRQFPRNKLEWMGYINYSGTTNYNPSLKSRISITRDTSKNQFFLQLISVTTEDTATYYCSYYRYDGAWFPYWGQGTLVTVSA VL: DIQMTQSPASLSASVGETVTITCRASGNIHNYLAWYQQKQGKSPQLLVYNAIMLADGVPSRFSASGSGTQYSLKINSLQPEDFGSYYCQHFWSFPLTFGAGTKVEIK
